B1: CPEB3 Ribozyme (parent)
chain: GGGGGCCACAGCAGAAGCGUUCACGUCGCGGCCCCUGUCAGAUUCUGGUGAAUCUGCGAAUUCUGCUGU

The results in this text go back to the RNAGym collection of RNA variant scans (doi:10.7554/elife.80360).

This series covers variants of B1. The experiment in a line: self-cleavage, relative activity (ratio to wild type); higher = more cleavage; co-transcriptional.
For the variant GGGGGCCACAGCCUAAGCGUUCACGUCGCGGCCCCUGUCAGAUUCUGGUGAAUCUGCGAAUUCUGCUGU [A13C G14U], the self-cleavage was 0.22. Consider GGGGGCCACAGCCCAAGCGUUCACGUCGCGGCCCCUGUCAGAUUCUGGUGAAUCUGCGAAUUCUGCUGU [A13C G14C], for which the self-cleavage is 0.228. For GGGGGCCACAGCCAAAGCGUUCACGUCGCGGCCCCUGUCAGAUUCUGGUGAAUCUGCGAAUUCUGCUGU [A13C G14A], the self-cleavage was 0.251.

With GGGGGCCACAGCCGAAGCGUUCACGUCGCGGCCCCUGUCACAUUCUGGUGAAUCUGCGAAUUCUGCUGU [A13C G41C], the self-cleavage was 0.214. As for GGGGGCCACAGCCGAAGCGUUCACGUCGCGGCCCCUGUCAUAUUCUGGUGAAUCUGCGAAUUCUGCUGU [A13C G41U], the self-cleavage turned out to be 0.349. Turning to GGGGGCCACAGCCGAAGCGUUCACGUCGCGGCCCCUGUCAGAUUCUGGUGAAUGUGCGAAUUCUGCUGU [A13C C54G], the self-cleavage turned out to be 0.45. With GGGGGCCACAGCCGAAGCGUUCACGUCGCGGCCCCUGUCAGAUUCUGGUGAAUUUGCGAAUUCUGCUGU [A13C C54U], the self-cleavage stood at 0.773. GGGGGCCACAGCCGAAGCGUUCACGUCGCGGCCCCUGUCAGAUUCUGGUGAAUAUGCGAAUUCUGCUGU [A13C C54A]: the self-cleavage came out at 0.414. With GGGGGCCACAGCCGAAGCGUUCACGUCGCGGCCCCUGUCAGAUUCUGGUGAAUCUGCGAAUUCUGAUGU [A13C C66A], the self-cleavage is 0.48. In the case of GGGGGCCACAGCCGAAGCGUUCACGUCGCGGCCCCUGUCAGAUUCUGGUGAAUCUGCGAAUUCUGUUGU [A13C C66U], the self-cleavage is 0.465.

Turning to GGGGGCCACAGCCGAAGCGUUCACGUCGCGGCCCCUGUCAGAUUCUGGUGAAUCUGCGAAUUCUGGUGU [A13C C66G], the self-cleavage turned out to be 0.862. In the case of GGGGGCCACAGCCGAAGCGUUCACGUCCCGGCCCCUGUCAGAUUCUGGUGAAUCUGCGAAUUCUGCUGU [A13C G28C], the self-cleavage was 0.149. As for GGGGGCCACAGCCGAAGCGUUCACGUCUCGGCCCCUGUCAGAUUCUGGUGAAUCUGCGAAUUCUGCUGU [A13C G28U], the self-cleavage came out at 0.116. Under GGGGGCCACAGCCGAAGCGUUCACGUCACGGCCCCUGUCAGAUUCUGGUGAAUCUGCGAAUUCUGCUGU [A13C G28A] stands 0.108; under GGGGGCCACAGCCGAAGCUUUCACGUCGCGGCCCCUGUCAGAUUCUGGUGAAUCUGCGAAUUCUGCUGU [A13C G19U], 0.138. Consider GGGGGCCACAGCCGAAGCGUUCACGUCGUGGCCCCUGUCAGAUUCUGGUGAAUCUGCGAAUUCUGCUGU [A13C C29U], for which the self-cleavage came to 0.0773.

For the variant GGGGGCCACAGCCGAAGCGUUCACGUCGCCGCCCCUGUCAGAUUCUGGUGAAUCUGCGAAUUCUGCUGU [A13C G30C], the self-cleavage is 0.451. Under GGGGGCCACAGCCGAAGCGUUCACGUCGCUGCCCCUGUCAGAUUCUGGUGAAUCUGCGAAUUCUGCUGU [A13C G30U] stands 0.281; under GGGGGCCACAGCCGAAGCGUUCACGUCGCGGCCCCUGUUAGAUUCUGGUGAAUCUGCGAAUUCUGCUGU [A13C C39U], 0.555; under GGGGGCCACAGCCGAAGCGUUCACGUCGCGGCCCCUGUCAGAUUCUGGUGAAUCUGCGAAUUAUGCUGU [A13C C63A], 0.467.

Turning to GGGGGCCACAGCCGAAGCGUUCACGUCGCGGCCCCUGUCAGAUUCUGGUGAAUCUGCGAAUUGUGCUGU [A13C C63G], the self-cleavage came to 0.366. For the variant GGGGGCCACAGCCGAAGCGUUCACGUCGCGGCCCCUGUCAGAUUCUGGUGAAUCUGCGAAUUUUGCUGU [A13C C63U], the self-cleavage stood at 0.732. As to GGGGGCCACAGCCGAAGCGUUCACGUCGCGGCCGCUGUCAGAUUCUGGUGAAUCUGCGAAUUCUGCUGU [A13C C34G], the self-cleavage turned out to be 0.498. Under GGGGGCCACAGCCGAAGCGUUCACGUCGCGGCCCCUUUCAGAUUCUGGUGAAUCUGCGAAUUCUGCUGU [A13C G37U] stands 0.225. Under GGGGGCCACAGCCGAAGCGUUCACGUCGCGGCCCCUAUCAGAUUCUGGUGAAUCUGCGAAUUCUGCUGU [A13C G37A] stands 0.14; under GGGGGCCACAGCCGAAACGUUCACGUCGCGGCCCCUGUCAGAUUCUGGUGAAUCUGCGAAUUCUGCUGU [A13C G17A], 0.0886. Under GGGGGCCACAGCCGAACCGUUCACGUCGCGGCCCCUGUCAGAUUCUGGUGAAUCUGCGAAUUCUGCUGU [A13C G17C] stands 0.122.

As for GGGGGCCACAGCCGAAGCGUUCACGUCGCGGCCCCUGUCAGAUUCUUGUGAAUCUGCGAAUUCUGCUGU [A13C G47U], the self-cleavage was found to be 0.959.

As to GGGGGCCACAGCCGAAGCGUUCACGUCGCGGCCCCUGUCAGAUUCUCGUGAAUCUGCGAAUUCUGCUGU [A13C G47C], the self-cleavage is 0.928.

In the case of GGGGGCCACAGCCGAAGCGUUCACGUCGCGGCCCGUGUCAGAUUCUGGUGAAUCUGCGAAUUCUGCUGU [A13C C35G], the self-cleavage stood at 0.323. Under GGGGGCCACAGCCGAAGCGUUCACGUCGCGGCCCUUGUCAGAUUCUGGUGAAUCUGCGAAUUCUGCUGU [A13C C35U] stands 0.751.

For the variant GGGGGCCACAGCCGAAGCGUUCACGUCGCGUCCCCUGUCAGAUUCUGGUGAAUCUGCGAAUUCUGCUGU [A13C G31U], the self-cleavage turned out to be 0.508. Consider GGGGGCCACAGCCGAAGCGUUCACGUCGCGACCCCUGUCAGAUUCUGGUGAAUCUGCGAAUUCUGCUGU [A13C G31A], for which the self-cleavage was 0.654. The value for GGGGGCCACAGCCGAAGCGUUCACGUCGCGGCACCUGUCAGAUUCUGGUGAAUCUGCGAAUUCUGCUGU [A13C C33A] was 0.593; that for GGGGGCCACAGCCGAAGCGUUCACGUCGCGGCCCCUGUCAGAUUCUGGUGAAUCUGAGAAUUCUGCUGU [A13C C57A] was 0.276; that for GGGGGCCACAGCCGAAGCGUUCACGUCGCGGCCCCUGUCAGAUUGUGGUGAAUCUGCGAAUUCUGCUGU [A13C C45G] was 0.835. The value for GGGGGCCACAGCCGAAGCGUUCACGUCGCGGCCCCUGUCAGAUUAUGGUGAAUCUGCGAAUUCUGCUGU [A13C C45A] was 0.761; that for GGGGGCCACAGCCGAAGCGUUCACGUCGCGGACCCUGUCAGAUUCUGGUGAAUCUGCGAAUUCUGCUGU [A13C C32A] was 0.55. Regarding GGGGGCCACAGCCGAAGCGUUCACCUCGCGGCCCCUGUCAGAUUCUGGUGAAUCUGCGAAUUCUGCUGU [A13C G25C], the self-cleavage came out at 0.0875.
